Assay results published in publication PMC2705653 (Molecular cell, 2009).

T1: Swi6, full length, wild type (S. pombe, UniProt P40381 1-328)
T1 sequence (looked up): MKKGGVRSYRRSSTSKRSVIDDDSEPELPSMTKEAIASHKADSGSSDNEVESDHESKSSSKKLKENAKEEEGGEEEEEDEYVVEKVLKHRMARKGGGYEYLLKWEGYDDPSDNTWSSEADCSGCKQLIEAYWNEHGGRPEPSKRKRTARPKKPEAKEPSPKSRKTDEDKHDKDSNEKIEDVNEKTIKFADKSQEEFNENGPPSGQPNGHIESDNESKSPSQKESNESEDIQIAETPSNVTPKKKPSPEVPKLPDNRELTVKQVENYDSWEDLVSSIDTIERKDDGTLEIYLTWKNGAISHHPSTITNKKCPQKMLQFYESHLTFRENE

T2: Swi6 E80V V82E (S. pombe, UniProt P40381 1-328, E80V | V82E)
T2 sequence (looked up): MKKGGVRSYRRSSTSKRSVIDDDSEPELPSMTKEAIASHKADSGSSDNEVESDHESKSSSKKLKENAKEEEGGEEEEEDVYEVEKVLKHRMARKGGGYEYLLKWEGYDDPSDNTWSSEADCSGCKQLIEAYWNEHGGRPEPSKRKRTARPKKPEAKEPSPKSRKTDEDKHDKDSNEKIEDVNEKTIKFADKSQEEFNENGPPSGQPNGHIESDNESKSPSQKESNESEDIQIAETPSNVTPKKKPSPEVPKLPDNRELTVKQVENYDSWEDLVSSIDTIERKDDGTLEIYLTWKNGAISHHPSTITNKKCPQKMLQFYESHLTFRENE

T3: Swi6 V82E (S. pombe, UniProt P40381 1-328, V82E)
T3 sequence (looked up): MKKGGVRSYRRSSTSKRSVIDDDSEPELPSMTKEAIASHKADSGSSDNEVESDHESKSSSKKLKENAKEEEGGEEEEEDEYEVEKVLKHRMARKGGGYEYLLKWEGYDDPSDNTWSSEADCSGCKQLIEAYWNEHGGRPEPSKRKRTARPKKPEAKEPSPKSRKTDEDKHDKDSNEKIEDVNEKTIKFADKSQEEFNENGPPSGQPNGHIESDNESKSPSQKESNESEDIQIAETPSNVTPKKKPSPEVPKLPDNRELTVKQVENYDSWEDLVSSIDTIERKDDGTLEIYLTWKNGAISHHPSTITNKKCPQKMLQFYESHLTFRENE

T4: Chp1 chromodomain E23V,V24M (S. pombe, UniProt Q10103 9-76, E23V | V24M)
T4 sequence (looked up): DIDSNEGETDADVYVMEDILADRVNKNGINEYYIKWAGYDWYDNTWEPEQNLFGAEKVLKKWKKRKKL

T5: H3K9me3 peptide (isothermal titration calorimetry) (trimethyl-lysine at 9)
T5 chain: ARTKQTARKSTGGKAY

T6: Chp1 chromodomain (residues 15-75) for crystallization (S. pombe, UniProt Q10103 15-75)
T6 sequence (looked up): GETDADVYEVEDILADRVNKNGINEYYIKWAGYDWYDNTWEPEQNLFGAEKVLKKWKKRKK


Tests used:
[1] = molecular target: T1, Swi6, full length, wild type; test: fluorescence polarisation
Swi6 E80V V82E = molecular target: T2, Swi6 E80V V82E; test: fluorescence polarisation
Swi6 V82E = molecular target: T3, Swi6 V82E; test: fluorescence polarisation
[2] = molecular target: T4, Chp1 chromodomain E23V,V24M; test: fluorescence polarisation
[3] = molecular target: Clr4 chromodomain (residues 1-70) (S. pombe, UniProt O60016 1-70); test: fluorescence polarisation
[4] = molecular target: T5, H3K9me3 peptide (isothermal titration …); test: ITC
[5] = molecular target: T6, Chp1 chromodomain (residues 15-75) for …; test: crystal structure

Chain of Clr4 chromodomain (residues 1-70) (O60016 1-70): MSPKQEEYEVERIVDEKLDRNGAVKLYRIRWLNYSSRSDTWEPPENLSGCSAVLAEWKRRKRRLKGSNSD

Binder | Kd [1] [µM] | Kd (Swi6 E80V V82E) [nM] | Kd (Swi6 V82E) [nM] | Kd [2] [µM] | Kd [3] [nM] | fold higher affinity than Swi6 [4] [fold] | binding result [5]
ARTKQTARKSTGGKAY (trimethyl-lysine at 9) [H3K9me3 peptide (fluorescence polarization)] | 3.34 ± 0.55 | 610 ± 120 | 1040 ± 100 | 14.7 | 600 ± 80 | – | –
ARTKQTARKSTGGKAY (dimethyl-lysine at 9; fluorescein (position not given)) [fluorescein labeled H3K9me2 peptide] | 10.3 ± 1.69 | 1070 ± 30 | 2190 ± 130 | – | 2860 ± 270 | – | –
Chp1 chromodomain, wild type (for binding studies) (domain or fragment, S. pombe, UniProt Q10103 9-76, looked up) DIDSNEGETDADVYEVEDILADRVNKNGINEYYIKWAGYDWYDNTWEPEQNLFGAEKVLKKWKKRKKL | – | – | – | – | – | ≥ 5 | –
ARTKQTARKSTGGKAY (trimethyl-lysine at 9) [H3K9me3 peptide (crystallization)] | – | – | – | – | – | – | binds
